Source: patent publication US20260234220A1 (OSPEDALE SAN RAFFAELE S R L, published 2026)

B1: IgG BU.7 (antibody, V domains shown)
VH: LEWGPGLVKPSETLSLTCTVSGGSISSINYYWVWIRQPPGKGLEWIGNINYSGTTNYNPSLKSRVTISVDTSKNQFSLKLSSVTAADTAVYYCARQTYYYDRRGYYRPEPIEHWGQGTLVTVSS
VL: ELVMTQSPSFLSASVGDRVTITCRASQDVRSFLHWYQQRPGKAPKLLIYAASMVSSEVPSRFSGSGSETDFTLTIDGLQPEDVATYFCQQTYDTPLTFGGGTAVDIK
B2: IgG BU.54 (antibody, V domains shown)
VH: LEWGPGLVKASQTLSLTCTVSGGSISSRNFYWSWIRQPGGKGLEWIGRIYTSGSTNYNPSLKSRVTISLDTSKSQFSLKLSSVTAADTAVYYCARGTFYYDRSGNGRLDPLDYWGQGTLVTVS
VL: ELVMTQSPSSLSASVGDRVTITCQASQDISNYLNWYQQKPGKAPKLLIYDASNLETGVPSRFSGSGFGTHFTLTISSLQPEDFATYYCQQHDNLVTFGGGTKVEIK

Target: S protein of SARS-CoV-1 on pseudotyped particles (SARS-CoV-1, UniProt P59594 14-1255)
Experiment: cell-based or functional assay

Binder | neutralizing activity expressed as IC50 µg/ml (pseudovirus, luciferase) [µg/mL]
B1 | 1.3
B2 | 0.4
